What was measured:
[1] = test system: 4-hydroxynonenal (4HNE); assay: Immunoblotting of 4-HNE in POMCha-overexpressing N43/5 cells; assay type: cell-based, mouse; settings: Fer-1 5 μM, 24 h
[2] = test system: POMCha-overexpressing Marchf6-KO N43/5 cells; assay: Cell viability (CellTiter-Glo) of POMCha-overexpressing Marchf6-KO N43/5 cells; assay type: cell-based, mouse
Description: To understand the functional or mechanistic association between Marchf6-mediated POMC degradation and ferroptosis, lipid ROS levels were compared in N43/5 cells overexpressing POMCha using a lipid peroxidation sensor C11-BODIPY^581/591. Specifically, WT or Marchf6-KO N43/5 cells were transfected with pCH4129 (POMCha) for 48 hours, and the medium was replaced with a culture medium containing 2 μM C11-BODIPY^581/591 (Thermo Fisher Scientific, D3861). The cells were incubated at 37° C. for 30 minutes, and the fluorescent probe-treated cells were trypsinized, transferred to a 15 ml Falcon tube, washed three times with 1 ml of ice-cold PBS, and then transferred to an ice-cold round-bottom polystyrene tube (Corning, 352235). The amount of intracellular lipid ROS in […] was measured using CytoFLEX LX (Beckman Coulter) using fluorescein isothiocyanate (FITC) and analyzed using FlowJo v10.8.1 (BD Bioscience). In addition, cell viability was analyzed using a CellTiter-Glo luminescent 3D cell viability assay kit (Promega, G9241) and a multimode plate reader (TECAN, Spark 10 M). At this time, when the inhibition of cell death was evaluated, WT or Marchf6-KO N43/5 cells expressing pCH60 (empty vector) or pCH4129 (POMCha) (final concentration of […] each) were treated with 5 μM Fer-1, 20 μM Z-VAD-FMK or 40 μM Nec-1, and incubated for 24 hours, and cell viability was analyzed. In addition, the intracellular NADP(H) level was measured using a NADP/NADPH-Glo assay kit (Promega, G9081) and a multimode plate reader (TECAN, Spark 10 M). Further, LDH activity was measured using the Cytotoxicity Detection Kit Plus (LDH) (Sigma, 4744926001).
Through Examples, since Marchf6 mediated the degradation of POMC, it was expected that loss of Marchf6 would make POMC neurons hypersensitive to POMC-induced ferroptosis. Therefore, pCH60 (empty vector), pCH879 (Marchf63f), pCH880 (Marchf6flag^C9A), or pCH4170 (Marchf6flag^P460A) was transfected into WT or Marchf6-KO N43/5 cells, and the degree of ferroptosis induction in POMC neurons was analyzed as in Example 6-1.

[3] = test system: Gpx4, CHOP, Nox2, and Nox4; assay: Immunoblotting of Gpx4, CHOP, Nox2 and Nox4 in POMCha-overexpressing Marchf6-KO N43/5 cells; assay type: cell-based, mouse
[4] = biological target: T1, POMC (Homo sapiens, UniProt P01189); assay: Chemical crosslinking-based reciprocal co-immunoprecipitation assay in HEK293T cells; assay type: binding; settings: DSP crosslinking
T1 construct: expressed in transfected cells; host or cells: HEK293T
T1 sequence (P01189 1-267): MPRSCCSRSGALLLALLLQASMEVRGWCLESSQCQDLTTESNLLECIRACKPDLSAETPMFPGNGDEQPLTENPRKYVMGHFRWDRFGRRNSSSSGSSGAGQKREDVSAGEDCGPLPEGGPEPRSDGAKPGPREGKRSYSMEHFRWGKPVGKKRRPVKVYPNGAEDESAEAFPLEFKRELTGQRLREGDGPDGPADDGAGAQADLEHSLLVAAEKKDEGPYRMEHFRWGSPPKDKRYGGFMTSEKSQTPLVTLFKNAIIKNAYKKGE
Description: For the chemical crosslinking-based reciprocal co-immunoprecipitation assay, HEK293T cells were incubated at […] in a 10-cm dish plate and co-transfected with […] of pCH60 (empty vector) or pCH4129 (exogenous C-terminally hemagglutinin (ha)-tagged POMC: POMCha) and pCH879 (wild-type C-terminal triple flag-tagged Marchf6: Marchf63f) or pCH4170 (Marchf6^P460A) and incubated for 48 hours. The cells were washed with PBS, treated with 1 mM DSP [dithiobis(succinimidyl propionate)] (Thermo Fisher, 22585), and then the crosslinked cells were lysed and immunoprecipitated. The beads were washed three times with an IP-wash buffer (20 mM Tris-HCl, 137 mM NaCl, 0.1% NP-40, 2 mM EDTA, 10% glycerol) and bound proteins were eluted with a 2× SDS sample buffer. For immunoprecipitation with FLAG-agarose (Sigma-Aldrich, A2220), a 3× FLAG peptide (Protein Ark, GEN-3XFLAG-5) was used. Thereafter, the eluate was denatured and heated at 37° C. for 20 minutes, and SDS-PAGE and immunoblotting were performed using the corresponding antibody.

[5] = biological target: T2, GST-POMC fragments (Homo sapiens, UniProt P01189); assay: GST pull-down assay; assay type: binding; settings: extract of HEK293T cells expressing Marchf63f
T2 construct: purified GST, GST-POMC^1-76, GST-POMC^27-76, or GST-POMC^1-26 was incubated with 50 μl of glutathione Sepharose beads; made in house; Marchf63f came from an extract of transfected HEK293T cells
T2 sequence (P01189 1-26): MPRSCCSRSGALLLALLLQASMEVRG
Description: (§1) To clarify a POMC domain binding to the C4 domain of Marchf6, a Y2H assay was performed using a set of POMC fragments in which the C4 of Marchf6 and the C-terminus (Ct-) of POMC were cleaved. To this end, pCH4540 (C4), pCH4132 (POMC), or cleaved forms thereof pCH4235 (POMC^1-76), pCH4236 (POMC^1-87), pCH4237 (POMC^1-102), pCH4238 (POMC^1-137), and pCH4239 (POMC^1-176) were co-transformed into CHY726 and spotted on a SC(-Leu/-Trp) or SC(-Leu/-Trp/-His) plate and analyzed as in Example above. In addition, for interaction analysis between full-length Marchf6 and POMC, a split-Ub assay was performed by transforming S. cerevisiae CHY712 with pCH836 (Marchf6) or pCH4311 (Marchf6^P460A) as bait and pCH4203 (POMC^1-267), pCH4204 (POMC^77-267), or pCH4313 (POMC^1-76) as prey. In addition, for glutathione-S-transferase (GST) pull-down assay, […] of purified GST, GST-POMC^1-76, GST-POMC^27-76, or GST-POMC^1-26 was incubated with 50 μl of glutathione Sepharose beads (Cytiva, 17-0756-05) at 4° C. for 2 hours.
(§2) HEK293T cells transfected with pCH879 (Marchf63f) were lysed with a lysis buffer (50 mM Tris-HCl, 150 mM NaCl, 1 mM EDTA, 1% NP-40, pH 7.6) containing 1× protease inhibitor cocktail to obtain an extract, and the extract and the beads were further incubated at 4° C. for 2 hours, and then washed three times with 0.5 ml of GST-wash buffer (20 mM Tris-HCl, 137 mM NaCl, 2 mM EDTA, 0.5% NP-40, 10% glycerol, pH 7.6). Proteins binding to the beads were eluted with a 2× SDS-sample buffer, heated at 37° C. for 20 minutes, subjected to SDS-PAGE, Coomassie blue staining, and immunoblotting using anti-flag antibody.

[6] = biological target: T3, GST-POMC fragments (Homo sapiens, UniProt P01189); assay: GST pull-down assay; assay type: binding; settings: extract of HEK293T cells expressing Marchf63f; remark: listed apart in the source
T3 construct: purified GST, GST-POMC^1-76, GST-POMC^27-76, or GST-POMC^1-26 was incubated with 50 μl of glutathione Sepharose beads; made in house; Marchf63f came from an extract of transfected HEK293T cells
T3 sequence (P01189 1-76): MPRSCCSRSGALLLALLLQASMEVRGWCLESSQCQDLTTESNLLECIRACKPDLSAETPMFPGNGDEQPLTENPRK
Description: as §1, §2

[7] = biological target: T4, GST-POMC fragments (Homo sapiens, UniProt P01189); assay: GST pull-down assay; assay type: binding; settings: extract of HEK293T cells expressing Marchf63f; remark: listed apart in the source
T4 construct: purified GST, GST-POMC^1-76, GST-POMC^27-76, or GST-POMC^1-26 was incubated with 50 μl of glutathione Sepharose beads; made in house; Marchf63f came from an extract of transfected HEK293T cells
T4 sequence (P01189 27-76): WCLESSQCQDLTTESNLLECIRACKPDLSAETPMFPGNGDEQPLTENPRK
Description: as §1, §2

Molecule	level of 4-hydroxynonenal (4HNE) increased by overexpression of POMCha, effect of treatment [1]	decreased viability of POMCha-overexpressing Marchf6-KO N43/5 cells, effect of treatment ([2]; 5 μM Fer-1, 24 hours)	reduced viability of POMCha-overexpressing Marchf6-deficient N43/5 cells, effect of ectopic expression ([2]; ectopic expression by transfection)	expression levels of Gpx4, CHOP, Nox2, and Nox4 proteins, effect of expression of construct [3]	binding of full-length POMC (co-immunoprecipitation) [4]	binding to GST-POMC^1-26 [5]	binding to GST-POMC^1-76 [6]	binding to GST-POMC^27-76 [7]
CCOC(=O)c1ccc(NC2CCCCC2)c(N)c1 [Fer-1, ferrostatin-1, reference compound]	restored	restored						
Marchf63f: wild-type C-terminal triple flag-tagged Marchf6 (membrane associated ring-CH-type finger 6), expressed from pCH879 (protein, UniProt Q6ZQ89 1-909, looked up, C-terminal triple FLAG tag, wild-type C-terminal triple flag-tagged Marchf6 (membrane associated ring-CH-type finger 6), expressed from pCH879) E3 ubiquitin-protein ligase …: MDTAEEDICRVCRSEGTPEKPLYHPCVCTGSIKFIHQECLVQWLKHSRKEYCELCKHRFAFTPIYSPDMPSRLPIQDIFAGLVTSIGTAIRYWFHYTLVAFAWLGVVPLTACRIYKCLFTGSVSSLLTLPLDMLSTENLLADCLQGCFVVTCTLCAFISLVWLREQIVHGGAPIWLEHAAPPFNAAGHHQNEAPVGGNGAENPAADQPANPAGENAVLGENPDAQDGQAEEEEEDNEEEDDAGVEDAADANNGAQDDMNWNALEWDRAAEELTWERMLGLDGSLVFLEHVFWVVSLNTLFILVFAFCPYHIGHFSLVGLGFEEHVQASHFEGLITTIVGYILLAITLIICHALATLVKFHRSRRLLGVCYIVVKVSLLVVVEIGVFPLICGWWLDICSLEMFDATLKDRELSFQSAPGTTMFLHWLVGMVYVFYFASFILLLREVLRPGVLWFLRNLNDPDFNPVQEMIHLPIYRHLRRFILSVIVFGSIVLLMLWLPIRIIKSLLPNFLPYNVMLYSDAPVSELSLELLLLQVVLPALLEQGHTRQWLKGLVRAWTVTAGYLLDLHSYLLGDQEENENSANQQVNNNQPARNNNAVPAGEGLHAAHQAILQQGGPVGFQPYRRPLNFPLRIFLLIVFMCITLLIASLICLTLPVFAGRWLMSFWTGTAKIHELYTAACGLYVCWLTIRAVTVLVAWMPQGRRVIFQKVKEWSLMIMKTLIVAVLLAGVVPLLLGLLFELVIVAPLRVPLDQTPLFYPWQDWALGVLHAKIIAAITLMGPQWWLKTVIEQVYANGIRNIDLHYIIRKLAAPVISVLLLSLCVPYVIASGAVPLLGVTAEMQNLVHRRIYPFLLMVVVLMGILSFQVRQFKRLYEHIKNDKYLVGQRLVNYERKSGKQGPSTPPPVSSQE			restored	restored	specifically bound	hardly bound	directly bound	very weakly bound
